Assay results taken from publication PMC11134845, “Development of a highly effective combination monoclonal antibody therapy against Herpes simplex virus” (Journal of Biomedical Science, 2024).
Several values for one entry are separate records, joined by “and”; a condition that tells them apart may be missing. Equal values may be shown once.

Columns and labels:
Conditions in all cases: both partners purified
[1] = target: T1, HSV-1F gB ectodomain (recombinant glycoprotein B of Herpes simplex virus 1 strain F, aa 30-729) (Herpes simplex virus 1 (strain F), UniProt P06436, biotin (EZ-Link NHS-PEG4-Biotin, gB monomer to biotin 1:3) in the BLI only); assay: BLI
[2] = target: T2, HSV-2G gB ectodomain (recombinant glycoprotein B of Herpes simplex virus 2 strain G, aa 22-724) (Herpes simplex virus 2 (strain G), biotin (EZ-Link NHS-PEG4-Biotin, gB monomer to biotin 1:3) in the BLI only); assay: BLI
T2 construct: also called HSV-2 gB; recombinant HSV-2 gB; not shown: double Strep-tag, C-terminal, cleaved

[3] = target: T1, HSV-1F gB ectodomain (recombinant …); assay: cryo-EM 2D class averages; recombinant HSV-1 gB trimers incubated with a 1:1 molar mixture of HDIT101 and HDIT102 Fabs; 2D classes calculated from micrographs
[4] = target: T1, HSV-1F gB ectodomain (recombinant …); assay: cryo-EM structure
[5] = target: T2, HSV-2G gB ectodomain (recombinant …); assay: cryo-EM structure

B1: HDIT102 Fab (Fab, V domains shown)
VH: EVQLVQSGAEVKTPGASVRVSCKASGHTFRTFDINWVRQAAGQGLEWMGWMSPNSGNTGYARQFQGRVTMTRNISANTAYMELRGLRFDDTAVYYCARGPGSTGTTGSMDVWGQGTTVTVSS
VL: QAGLTQPPSVSVAPGKTARISCGGNNIGSKSVHWYQQKPGQAPVLVIYYDSDRPSGIPERFSGSNSGNTATLTISRVEAGDEADYYCQVWDSGSVVFGGGTKLTVL
Kd [1]: 0.0895 nM | koff [1]: 8.85e-05 s⁻¹ | kon [1]: 992000 M⁻¹ s⁻¹ | Kd [2]: 0.0329 nM | koff [2]: 2.86e-05 s⁻¹ | kon [2]: 865000 M⁻¹ s⁻¹ | stoichiometry N [3]: 3 Fab per gB trimer and 2 Fab per gB trimer

B2: HDIT102 IgG (antibody, V domains shown)
VH: EVQLVQSGAEVKTPGASVRVSCKASGHTFRTFDINWVRQAAGQGLEWMGWMSPNSGNTGYARQFQGRVTMTRNISANTAYMELRGLRFDDTAVYYCARGPGSTGTTGSMDVWGQGTTVTVSS
VL: QAGLTQPPSVSVAPGKTARISCGGNNIGSKSVHWYQQKPGQAPVLVIYYDSDRPSGIPERFSGSNSGNTATLTISRVEAGDEADYYCQVWDSGSVVFGGGTKLTVL
notes: also called fully human IgG HDIT102; source: research grade quality, by contract manufacturer
kon [1]: 700000 M⁻¹ s⁻¹

B3: HDIT101 IgG (antibody, V domains shown)
VH: TLKESGPALVKPTQTLTLTCTFSGFSLSTSGMSVGWIRQPPGKALEWLAHIWWNNDKYYKPALKSRLTISKDTSKNQVVLTMTNMDPVDTATYYCARIYYGYRPYAMDYWGQGTLVTVSS
VL: IVMTQTPLSLPVTPGEPASISCRSSQSIVHSNGNTYLEWYLQKPGQSPQLLIYKVSNRFSGVPDRFSGSGSGTDFTLKISRVEAEDVGVYYCFQGSHVPWSFGQGTKLEIK
notes: also called humanized IgG HDIT101; source: GMP-grade, produced by Celonic Germany GmbH (contract manufacturer)
kon [1]: 500000 M⁻¹ s⁻¹

B4: HDIT101 Fab (Fab, V domains shown)
VH: TLKESGPALVKPTQTLTLTCTFSGFSLSTSGMSVGWIRQPPGKALEWLAHIWWNNDKYYKPALKSRLTISKDTSKNQVVLTMTNMDPVDTATYYCARIYYGYRPYAMDYWGQGTLVTVSS
VL: IVMTQTPLSLPVTPGEPASISCRSSQSIVHSNGNTYLEWYLQKPGQSPQLLIYKVSNRFSGVPDRFSGSGSGTDFTLKISRVEAEDVGVYYCFQGSHVPWSFGQGTKLEIK
notes: source: papain digestion of GMP-grade HDIT101 IgG1 (Celonic Germany GmbH), Pierce Fab Preparation Kit
Kd [1]: 7.26 nM | koff [1]: 0.00313 s⁻¹ | kon [1]: 435000 M⁻¹ s⁻¹ | Kd [2]: 18.1 nM | koff [2]: 0.00379 s⁻¹ | kon [2]: 212000 M⁻¹ s⁻¹ | stoichiometry N [3]: 1 Fab per gB trimer | stoichiometry N [4]: 3 Fab per gB trimer | stoichiometry N [5]: 3 Fab per gB trimer
